In paper PMC4931634:

Legend:
[1] = target: HIV-1 subtype C 1086.C gp120 (reference standard lot) (HIV-1 group M subtype C, strain 1086.C); assay: non-reduced SDS-PAGE; purified gp120 reference material; the dimer band disappeared completely upon reduced SDS-PAGE
[2] = target: HIV-1 subtype C TV1.C gp120 (reference standard lot) (HIV-1 group M subtype C, strain TV1.C); assay: as above

| Substance | stoichiometry N [1] | stoichiometry N [2] |
| --- | --- | --- |
| HIV-1 subtype C 1086.C gp120 (reference standard lot) (natural protein) | 2 | – |
| HIV-1 subtype C TV1.C gp120 (reference standard lot) (natural protein) | – | 2 |
